Source: patent US20180194839A1 (Novartis, published 2018)

How the values were obtained:
[1] = biological target: T1, recombinant mouse IL-23 (R&D Systems Cat#1887-ML) (mouse, UniProt Q9EQ14 22-196; P43432 23-335); test: ELISA, coated cytokine;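 note: antibodies incubated 3 h at room temperature on cytokine-coated plates, binding read out with alkaline phosphatase-conjugated anti-species IgG secondary antibodies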
T1 construct: also called mIL-23
T1 sequence (looked up) 1: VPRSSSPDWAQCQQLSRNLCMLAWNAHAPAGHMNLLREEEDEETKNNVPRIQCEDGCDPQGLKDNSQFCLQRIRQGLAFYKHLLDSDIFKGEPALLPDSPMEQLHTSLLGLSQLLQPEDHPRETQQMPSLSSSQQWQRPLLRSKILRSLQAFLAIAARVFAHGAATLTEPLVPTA
T1 sequence (looked up) 2: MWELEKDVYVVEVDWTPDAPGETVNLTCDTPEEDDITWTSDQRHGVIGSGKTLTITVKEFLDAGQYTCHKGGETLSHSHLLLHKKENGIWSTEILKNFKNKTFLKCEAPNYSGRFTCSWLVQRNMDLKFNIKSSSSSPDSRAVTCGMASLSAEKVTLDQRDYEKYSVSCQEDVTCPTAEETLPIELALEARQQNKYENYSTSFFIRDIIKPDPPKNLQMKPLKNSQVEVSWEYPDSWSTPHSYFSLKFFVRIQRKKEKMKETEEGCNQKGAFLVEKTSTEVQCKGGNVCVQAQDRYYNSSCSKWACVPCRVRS

[2] = biological target: T2, recombinant human IL-8 (R&D Systems Cat#208-IL-010/CF) (human, UniProt P10145 28-99); test: ELISA, coated cytokine;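 note: antibodies incubated 3 h at room temperature on cytokine-coated plates, binding read out with alkaline phosphatase-conjugated anti-species IgG secondary antibodies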
T2 construct: also called huIL-8
T2 sequence (looked up): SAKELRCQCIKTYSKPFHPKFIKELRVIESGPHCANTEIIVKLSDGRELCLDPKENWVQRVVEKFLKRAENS

[3] = biological target: T3, recombinant human EGF (Sigma Cat#E9644) (human, UniProt P01133 971-1023); test: ELISA, coated cytokine;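 note: antibodies incubated 3 h at room temperature on cytokine-coated plates, binding read out with alkaline phosphatase-conjugated anti-species IgG secondary antibodies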
T3 construct: also called huEGF

[4] = biological target: T4, recombinant human IL-20 (Novartis) (human, UniProt Q9NYY1 25-176, limits assumed); test: ELISA, coated cytokine;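 note: antibodies incubated 3 h at room temperature on cytokine-coated plates, binding read out with alkaline phosphatase-conjugated anti-species IgG secondary antibodies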
T4 construct: also called huIL-20
T4 sequence (looked up): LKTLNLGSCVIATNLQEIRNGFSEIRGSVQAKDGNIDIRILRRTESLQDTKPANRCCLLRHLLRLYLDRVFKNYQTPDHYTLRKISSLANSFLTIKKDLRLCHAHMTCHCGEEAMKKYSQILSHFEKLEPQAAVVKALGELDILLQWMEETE

[5] = biological target: T5, recombinant mouse IL-6 (R&D Systems Cat#406-ML-010/CF) (mouse, UniProt P08505 25-211); test: ELISA, coated cytokine
T5 construct: coated at 0.5 µg/ml; also called mIL-6
T5 sequence (looked up): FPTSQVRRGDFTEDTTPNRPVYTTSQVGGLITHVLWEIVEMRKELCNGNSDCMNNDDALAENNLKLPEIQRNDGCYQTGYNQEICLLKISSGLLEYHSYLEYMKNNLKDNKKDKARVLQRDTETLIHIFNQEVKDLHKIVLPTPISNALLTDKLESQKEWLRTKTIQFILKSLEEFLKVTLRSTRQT

[6] = biological target: T6, recombinant human IL-4 (R&D Systems Cat#204-IL/CF) (human, UniProt P05112 25-153); test: ELISA, coated cytokine
T6 construct: also called huIL-4
T6 sequence (looked up): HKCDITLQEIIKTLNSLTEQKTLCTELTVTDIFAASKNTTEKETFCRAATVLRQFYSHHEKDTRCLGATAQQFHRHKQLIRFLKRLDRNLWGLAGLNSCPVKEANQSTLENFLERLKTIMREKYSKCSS

[7] = biological target: T7, recombinant mouse IFN-γ (R&D Systems Cat#485-MT) (mouse, UniProt P01580 23-155); test: ELISA, coated cytokine
T7 construct: also called mIFN-γ
T7 sequence (looked up): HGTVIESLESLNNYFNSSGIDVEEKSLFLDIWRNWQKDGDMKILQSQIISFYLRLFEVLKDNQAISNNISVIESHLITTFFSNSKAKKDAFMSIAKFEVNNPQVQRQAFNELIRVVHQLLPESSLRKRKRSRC

[8] = biological target: T8, recombinant rat IL-4 (R&D Systems Cat#504-RL/CF) (rat, UniProt P20096 25-147, limits assumed); test: ELISA, coated cytokine
T8 sequence (looked up): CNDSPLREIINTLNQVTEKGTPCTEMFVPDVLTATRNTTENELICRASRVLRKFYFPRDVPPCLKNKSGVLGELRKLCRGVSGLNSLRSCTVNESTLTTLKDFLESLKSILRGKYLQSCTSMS

[9] = biological target: T9, recombinant mouse IL-18 (MBL Cat#B004-5) (mouse, UniProt P70380 36-192); test: ELISA, coated cytokine
T9 construct: also called mIL-18
T9 sequence (looked up): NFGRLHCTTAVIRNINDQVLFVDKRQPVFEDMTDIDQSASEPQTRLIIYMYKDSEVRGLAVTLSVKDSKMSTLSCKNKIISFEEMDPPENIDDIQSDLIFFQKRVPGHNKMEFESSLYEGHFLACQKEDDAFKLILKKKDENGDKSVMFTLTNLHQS

[10] = biological target: T10, recombinant rat IL-6 (R&D Systems Cat#506-RL-010) (rat, UniProt P20607 25-211); test: ELISA, coated cytokine
T10 sequence (looked up): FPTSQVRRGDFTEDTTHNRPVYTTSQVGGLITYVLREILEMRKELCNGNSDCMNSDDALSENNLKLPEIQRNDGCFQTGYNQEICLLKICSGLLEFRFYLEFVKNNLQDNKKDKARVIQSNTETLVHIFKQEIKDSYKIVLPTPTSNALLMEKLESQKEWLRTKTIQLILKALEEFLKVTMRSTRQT

[11] = biological target: T11, recombinant mouse IL-2 (R&D Systems 402-ML-020/CF) (mouse, UniProt P04351 21-169); test: ELISA, coated cytokine
T11 construct: also called mIL-2
T11 sequence (looked up): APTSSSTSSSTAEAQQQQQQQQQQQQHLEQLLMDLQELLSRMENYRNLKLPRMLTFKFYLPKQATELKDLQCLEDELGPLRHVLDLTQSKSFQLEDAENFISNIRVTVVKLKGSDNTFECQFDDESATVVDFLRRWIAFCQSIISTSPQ

[12] = biological target: T12, recombinant human TNFα (Novartis) (human, UniProt P01375 77-233); test: ELISA, coated cytokine
T12 construct: also called huTNFα

[13] = biological target: T13, recombinant mouse TNFα (R&D Systems Cat#410-MT) (mouse, UniProt P06804 80-235); test: ELISA, coated cytokine, Ab 10 µg/ml
T13 construct: coated at 0.5 µg/ml; also called mTNFα
T13 sequence (looked up): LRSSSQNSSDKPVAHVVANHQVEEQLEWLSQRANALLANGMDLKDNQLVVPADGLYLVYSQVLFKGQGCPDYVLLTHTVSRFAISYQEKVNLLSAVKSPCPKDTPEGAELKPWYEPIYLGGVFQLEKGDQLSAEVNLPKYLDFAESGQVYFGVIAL

T12 sequence (P01375 77-233 limits assumed): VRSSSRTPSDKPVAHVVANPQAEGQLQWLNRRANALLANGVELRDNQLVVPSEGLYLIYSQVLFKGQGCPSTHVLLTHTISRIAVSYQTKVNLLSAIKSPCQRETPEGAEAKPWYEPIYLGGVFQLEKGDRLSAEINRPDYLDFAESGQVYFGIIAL
T3 sequence (P01133 971-1023 limits assumed): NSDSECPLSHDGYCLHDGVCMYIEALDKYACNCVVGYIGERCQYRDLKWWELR

Binder	binding result [1]	binding result [2]	binding result [3]	binding result [4]	binding result [5]	binding result [6]	binding result [7]	binding result [8]	binding result [9]	binding result [10]	binding result [11]	binding result [12]	O.D. [13] [O.D.]
XAB4 (antibody, human IgG1, kappa, V domains shown, also called MB435 N56Q) VH: EVQLVESGGDLVQPGGSLRLSCAASGFTFSSYWMSWVRQAPGKGLEWVANIKQDGSEKYYVDSVKGRFTISRDNAKNSLYLQMNSLRAEDTAVYYCARDRGSLYYWGQGTLVTVSS VL: AIQLTQSPSSLSASVGDRVTITCRPSQGINWELAWYQQKPGKAPKLLIYDASSLEQGVPSRFSGSGSGTDFTLTISSLQPEDFATYYCQQFNSYPLTFGGGTKVEIKR	no binding (tested: 10 µg/ml)	no binding (tested: 10 µg/ml)	no binding (tested: 10 µg/ml)	no binding (tested: 10 µg/ml)	no binding (tested: 10 µg/ml)	no binding (tested: 10 µg/ml)	no binding (tested: 10 µg/ml)	no binding (tested: 10 µg/ml)	no binding (tested: 10 µg/ml)	no binding (tested: 10 µg/ml)	no binding (tested: 10 µg/ml)	no binding (tested: 10 µg/ml)	0.065
XAB1 (antibody, human IgG1, kappa, V domains shown, human IgG1/kappa monoclonal antibody; also called parental XAB1; XAB1 IgG) VH: EVQLVESGGDLVQPGGSLRLSCAASGFTFSSYWMSWVRQAPGKGLEWVANIKQDGSEKYYVDSVKGRFTISRDNAKNSLYLQMNSLRAEDTAVYYCARDRGSLYYWGQGTLVTVSS VL: AIQLTQSPSSLSASVGDRVTITCRPSQGIISALAWYQQKPGKAPKLLIYDASSLENGVPSRFSGSGSGTDFTLTISSLQPEDFATYYCQQFNSYPLTFGGGTKVEIKR	no binding (tested: 10 µg/ml)	no binding (tested: 10 µg/ml)	no binding (tested: 10 µg/ml)	no binding (tested: 10 µg/ml)	no binding (tested: 10 µg/ml)	no binding (tested: 10 µg/ml)	no binding (tested: 10 µg/ml)	no binding (tested: 10 µg/ml)	no binding (tested: 10 µg/ml)	no binding (tested: 10 µg/ml)	no binding (tested: 10 µg/ml)	no binding (tested: 10 µg/ml)	0.025
